Test [1] addresses T1, ETB receptors (Homo sapiens, UniProt P24530).
T1 sequence (P24530 27-442): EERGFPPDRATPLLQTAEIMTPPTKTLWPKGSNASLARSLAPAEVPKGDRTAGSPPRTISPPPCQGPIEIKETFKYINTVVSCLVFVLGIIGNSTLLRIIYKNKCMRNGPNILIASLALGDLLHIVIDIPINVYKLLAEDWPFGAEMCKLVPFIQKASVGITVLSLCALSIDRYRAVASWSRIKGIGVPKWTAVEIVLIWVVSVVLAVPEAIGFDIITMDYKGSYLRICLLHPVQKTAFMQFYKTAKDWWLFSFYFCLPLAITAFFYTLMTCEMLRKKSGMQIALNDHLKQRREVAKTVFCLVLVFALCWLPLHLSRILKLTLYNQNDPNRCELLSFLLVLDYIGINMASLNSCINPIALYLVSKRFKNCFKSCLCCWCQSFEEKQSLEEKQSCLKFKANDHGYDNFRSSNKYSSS
The settings on record: cited from earlier work.

Test [2] has as its target T1, ETB receptors.
Test [3] has as its target T2, ETA receptors (Homo sapiens, UniProt P25101).
T2 sequence (P25101 21-427): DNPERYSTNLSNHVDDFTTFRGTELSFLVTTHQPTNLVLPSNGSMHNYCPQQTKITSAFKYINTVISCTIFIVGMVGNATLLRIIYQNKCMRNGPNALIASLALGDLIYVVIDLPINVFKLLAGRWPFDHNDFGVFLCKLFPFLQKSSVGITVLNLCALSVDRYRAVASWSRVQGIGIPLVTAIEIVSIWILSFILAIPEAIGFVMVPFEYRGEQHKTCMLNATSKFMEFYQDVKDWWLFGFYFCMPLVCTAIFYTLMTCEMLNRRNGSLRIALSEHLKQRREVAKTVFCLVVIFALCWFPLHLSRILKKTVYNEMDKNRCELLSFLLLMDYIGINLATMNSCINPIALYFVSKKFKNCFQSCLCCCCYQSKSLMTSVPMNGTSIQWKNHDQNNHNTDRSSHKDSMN
The settings on record: cited from earlier work.

*1 amine or outer side, *2 acyl side, *3 side chain or, on linkers, in order; H or OH if unused. Where no end group is shown, it is not given here. Suc = O=C(CCC(=O)[*:2])[*:1]

For “analog of ET-1, Suc-Asp-Glu-Glu-Ala-Val-Tyr-Phe-Ala-His-Leu-Asp-Ile-Ile-Trp; potent and specific agonist for the ETB receptors (Suc-DEEAVYFAHLDIIW) [IRL-1620, N-Succinyl-[Glu^9, Ala^11,15] endothelin 1]”, the Ki in test [1] was 0.016 nM; in test [3], 1900 nM. For the same substance, the “selectivity for ETB over ETA receptors” value in test [2] was “approximately 120,000 times”.

For orientation: Ki means the equilibrium dissociation constant of an inhibitor or competing ligand from its target.
